Measurements: paper PMC7714071, “Interaction of amyloid beta with humanin and acetylcholinesterase is modulated by ATP” (FEBS Open Bio, 2020)

Key:
Aβ40 [1] = conditions: HN and AChE compared; cited from earlier work
Source text: Amino acid residues involved in direct interactions between HN and Aβ40 were identified previously by molecular modeling. The specific epitopes at the binding interface between HN and Aβ40 were identified, by proteolytic epitope excision and extraction in addition to affinity–mass spectrometric data analysis, to be HN (5–15) and Aβ (17–28). […] Inhibiting the 17–28 region of Aβ reduced aggregation of the neurotoxic amyloid fibrils and related cytotoxicity in SH‐SY5Y, a human neuroblastoma cell ... || Humanin has been previously reported to bind amino acid residues 17–28 of Aβ (Fig. 1). AChE is also known to bind Aβ (1–16) and the Aβ (12–28) region (Fig. 1). Since the binding sites of AChE and HN on Aβ are overlapping, we previously investigated whether HN and AChE can simultaneously bind Aβ [79].

[2] = test system: Aβ in A549 cell-conditioned media; test: ELISA, oligomer versus total Aβ in A549 cell-conditioned media; assay type: cell-based, human; conditions: Fig. 8A
Method: Aβ ELISAs were carried out according to previous protocols for determining the oligomeric and monomeric concentrations of Aβ and as we recently reported. Briefly, total Aβ (monomers + oligomers) was measured by two‐site binding ELISAs using the capture 6E10 monoclonal antibody and 4G8‐conjugated biotin as the detection antibody, which recognizes a distinct epitope, then quantitated using streptavidin‐HRP.
Using the same samples, oligomerized Aβ was measured by a single‐site ELISA in which antibodies targeting the same primary sequence epitope were used for both capture (4G8) and detection (4G8‐biotin). Only oligomers are detected with this approach since the 4G8‐biotin antibody cannot bind to the captured monomer because the epitope is blocked by the 4G8 capture antibody. […]
Conditioned media were immunodepleted (ID) according to the methods previously described and our recently published report. […] The ID media were then carefully removed and analyzed for the presence of the target protein or peptide by ELISA. The same amount of protein (3 µL of 600 µg·mL^−1 total protein) of each sample was analyzed in the experiments. […]
Both epitopes recognized by the 6E10 and 4G8 antibodies have been previously shown to be exposed in Aβ aggregates. […] Fold change relative to controls using anti‐6E10 or anti‐4G8 antibodies incubated with 300 μL of the medium not incubated with cells was calculated. […]

Aβ40 [3] = conditions: decreased lag phase; cited from earlier work
Source text: Almost all types of cells produce amyloid beta (Aβ), a peptide well recognized for its role in the development and progression of different stages of Alzheimer's disease (AD). The Aβ peptide is ~ 4 kDa and derived from the sequential processing of the higher molecular weight amyloid precursor protein by two membrane‐bound endoproteases, β‐ and γ‐secretase. Different C‐terminal Aβ heterogeneity results from processing by γ‐secretase, where Aβ40 represents the most abundant isoform (~ 90%) as compared to Aβ42 (~ 10%). Self‐assembled Aβ40/42 peptides into amyloid fib ... || Humanin (HN) is a secreted 21‐ to 24‐amino acid mitochondrial‐derived peptide. Certain amino acid residues in HN have been identified to be involved in different functions, including binding to Aβ [55, 56]. […] HN was identified previously as a binding partner of Aβ, likely modulating its aggregation pathways and counteracting its deleterious effects. […] The specific epitopes at the binding interface between HN and Aβ40 were identified, by proteolytic epitope excision and extraction in addition to affinity–mass spectrometric data analysis, to be HN (5–15) and Aβ (17–28). […] Inhibiting the 17–28 region of Aβ reduced aggregation of the neurotoxic amyloid fibrils and related cytotoxicity in SH‐SY5Y, a human neuroblastoma cell ... || (+ 1 further places)

B1: acetylcholinesterase (protein)
chain: EGREDAELLVTVRGGRLRGIRLKTPGGPVSAFLGIPFAEPPMGPRRFLPPEPKQPWSGVVDATTFQSVCYQYVDTLYPGFEGTEMWNPNRELSEDCLYLNVWTPYPRPTSPTPVLVWIYGGGFYSGASSLDVYDGRFLVQAERTVLVSMNYRVGAFGFLALPGSREAPGNVGLLDQRLALQWVQENVAAFGGDPTSVTLFGESAGAASVGMHLLSPPSRGLFHRAVLQSGAPNGPWATVGMGEARRRATQLAHLVGCPPGGTGGNDTELVACLRTRPAQVLVNHEWHVLPQESVFRFSFVPVVDGDFLSDTPEALINAGDFHGLQVLVGVVKDEGSYFLVYGAPGFSKDNESLISRAEFLAGVRVGVPQVSDLAAEAVVLHYTDWLHPEDPARLREALSDVVGDHNVVCPVAQLAGRLAAQGARVYAYVFEHRASTLSWPLWMGVPHGYEIEFIFGIPLDPSRNYTAEEKIFAQRLMRYWANFARTGDPNEPRDPKAPQWPPYTAGAQQYVSLDLRPLEVRRGLRAQACAFWNRFLPKLLSATDTLDEAERQWKAEFHRWSSYMVHWKNQFDHYSKQDRCSDL
affinity for Aβ40 (Aβ40 [1]): comparable affinities
oligomer, % of total Aβ remaining after AChE ID ([2]; AChE-immunodepleted A549 media (non-depleted ~ 63%)): ~ 47%
total Aβ remaining after AChE ID ([2]; AChE-immunodepleted A549 media): ~ 57%
effect on Aβ40 aggregation (Aβ40 [3]): significantly accelerated the aggregation
